8 molecules from patent publication US20240368566A1, “PYK2-DERIVED PEPTIDES FOR INHIBITING INVADOPODIA-MEDIATED CANCER METASTASIS” (BAR-ILAN UNIVERSITY, priority 2023, published 2024) can be followed below.

For experiment [1], the system named is MDA-MB-231 cells. The experiment in a line: 3D scratch wound assay in Matrigel. The format is cell-based, human. Particulars: MMP inhibitor, 25 µM. The procedure: The 3D scratch wound assay was performed as described in Meirson et al. Targeting invadopodia-mediated breast cancer metastasis by using ABL kinase inhibitors. Oncotarget 2018; 9: 22158-22183. Briefly, 96 well Image Lock microtiter plates (Essen Bioscience) were coated with 100 μg/ml Matrigel (cat #354234; Corning, New-York, NY, USA). Following overnight incubation at 37° C., MDA-MB-231 cells were plated at a final concentration of 350,000 cells/ml and allowed to adhere for 12-16 h in the presence of Pyk2-PRR or control peptides. Following wounding of the bottom Matrigel-cells layer, a top layer of Matrigel was added to a final concentration of 2 mg/ml and allowed to polymerize for 30 min at 37° C. Pyk2-PRR or control scrambled peptides were then added again in DMEM/10% FBS to a final concentration of 0.1, 1, or 5 μM, with or without the MMP inhibitor GM6001 ([…]). Plates were placed in a 37° C. heated chamber, and images were collected using the IncuCyte® Zoom platform (Essen Bioscience; 20×, NA 0.60, air objective). Phase images were collected every one hour for a total of 12 h using the IncuCyte® acquisition software.

In a further experiment the target is T1, cortactin SH3 domain (Mus musculus, UniProt Q60598).
T1 construct: nucleotides1468-1641); 6xHis (N, cleaved yes); made in house; host or cells: E. coli BL21 (DE3)
Kind of experiment: NMR affinity determination, binding of peptides to purified cortactin-SH3. Particulars: for loss of affinity: mutant versus Pyk2-PRR2. As for the experimental part: The DNA sequence encoding the SH3 domain of the mouse cortactin SH3 domain (GenBank ID U03184; nucleotides1468-1641) was sub-cloned into a pET-28a plasmid (Novagen, Merck) in frame with the cleavable N-terminal 6×His tag. Isotopically labeled cortactin-SH3 for heteronuclear NMR experiments was expressed in transformed E. coli BL21 cells (DE3) grown in the presence of kanamycin (50 mg/1) and chloramphenicol (34 mg/1) at 37° C. in M9 minimal medium. For ^15N (^13C) labeling the medium contained 1 g/L of ^15NH4Cl (4 g/L ^13C6-glucose), and 0.25 g/l of appropriately labeled Celtone Base Powder (Cambridge Isotope Laboratories, Andover, MA) was added. For triple-labeled ^2H,^13C,^15N—SH3, expression began in 100 ml of the above medium grown to an OD600 of 0.4-0.5 and gently centrifuged. Pellets were then resuspended in 500 ml filter-sterilized D20-based ^15N-M9 supplemented with ^2H7-^13C6-glucose (2 g/1) and DCN-Isogro (0.25 g/1) to reach a final OD600 of −0.1. In both cases cells were then grown at 37° C. and induced with 0.5 mM isopropyl β-D-1-thiogalactopyranoside (IPTG) upon reaching OD600-0.8, followed by overnight growth at 27° C. To purify the SH3 domain, cells were harvested by centrifugation, subjected to a single freeze-thaw cycle, and resuspended in lysis buffer (50 mM NaPi pH 8.0, 300 mM NaCl, 1 mM dithiothreitol (DTT), 100 ml per liter of culture) supplemented with 1 tablet EDTA-free protease inhibitor cocktail (Merck) and benzamidine (5 mM). Cells were lysed by French press, followed by addition of benzamidine (final concentration 10 mM) and phenylmethylsulfonyl fluoride (PMSF, 1 mM), and the lysate was clarified by centrifugation. The supernatant was loaded on a HisTrap HP column (GE Healthcare, Chicago, IL, USA) equilibrated with lysis buffer and the protein eluted through a gradient (Buffer B: 50 mM NaPi pH 8.0, 100 mM NaCl, 300 mM imidazole, 1 mM DTT). To the fraction eluting at ˜40% B purified tobacco etch virus (TEV) protease (1:30 mol:mol) was added, and the mixture dialyzed overnight at 4° C. against dialysis buffer (50 mM NaPi at pH 8.0, 100 mM NaCl, 1 mM DTT). The dialysate was brought to a final concentration of ˜5 mM imidazole, filtered, and loaded onto a HisTrap column. The collected flowthrough was dialyzed against 20 mM Tris (pH 7.5), 1 mM DTT for 3 h to reach a final concentration of 10 mM NaCl. […]
Purified SH3 was dialyzed against NMR sample buffer (30 mM NaPi, pH ˜6.5) and concentrated to the desired concentration in an Amicon concentration tube (3 kDa MWCO) (Merck). […] For quantitative titrations, purchased peptides were dissolved in 100-300 μl NMR sample buffer, and samples at varying (SH3:PRR2 1:0-1:6, SH3 concentration constant at 0.1 mM) ratios were prepared. Fittings were performed with 5-6 measured points. […]

For experiment [2], the system named is MDA-MB-231 cells. Kind of experiment: 2D single-cell random migration assay. Type of experiment: cell-based, human. Particulars: highest (higher) peptide concentration; 12 hours; compared to control peptide; data not shown. As for the experimental part:
The 2D single-cell random migration assay was performed as previously described in Genna et al. Pyk2 and FAK differentially regulate invadopodia formation and function in breast cancer cells. J Cell Biol 2018; 217: 375-395. In brief, 6-well microtiter plates were coated with 10 μg/ml fibronectin and blocked with 1% denatured BSA. Peptide pre-treated cells were plated at 20,000 cells/well in DMEM/10% FBS containing peptides and allowed to adhere for 12-16 h. Plates were placed in a 37° C. heated chamber, and images were collected using the IncuCyte® Zoom platform (Essen Bioscience, Ann Arbor, MI, USA; 20×, NA 0.60, air objective). Phase images were collected every one hour for a total of 12 h using the IncuCyte® acquisition software. Trajectory plots, accumulated distance (total cell path length), Euclidean distance (the shortest distance between the starting point and endpoint of migration), and velocity were calculated using the chemotaxis and migration tool (ibidi GMBH, Grafelfing, Germany).

The subject of experiment [3] is MDA-MB-231 cells. The experiment in a line: Invadopodium precursor formation assay. The format is cell-based, human. Particulars: at higher peptide concentrations. The procedure: The invadopodium precursor formation assay was performed as described in Genna et al., 2018 (supra). Briefly, gelatin was conjugated to Alexa 405 dye (Thermo Fisher Scientific). MatTek dishes were treated with 1 N HCl and coated with 50 μg/ml poly-L-lysine. A 0.2% gelatin solution was prepared in PBS, and a 1:20 mixture of Alexa 405-labeled gelatin/unlabeled gelatin was warmed to 37° C. before addition to the poly-L-lysine coated plates. Gelatin was cross-linked with 0.01% glutaraldehyde followed by quenching with 5 mg/ml sodium borohydride. 125,000 MDA-MB-231 cells were plated on Alexa 405-labeled gelatin plates in the presence of 0.1, 1, or 5 μM of Pyk2-PRR peptides or scrambled control for 4 h. At the end of incubation, cells were fixed in 3.7% paraformaldehyde, permeabilized with 0.1% Triton X-100, blocked with 1% FBS, 1% BSA in PBS, and labeled with anti-Tks5 and anti-cortactin. Images were acquired using an inverted fluorescent microscope (Leica AF6000; 63×, NA 1.4, oil objective, Leica LAS AF acquisition software) (Wetzlar, Germany) equipped with an ORCA-Flash 4.0 V2 digital CMOS camera (Hamamatsu Photonics, Shizuoka, Japan).

The target in experiment [4] is T2, cortactin-SH3 domain (mouse cortactin SH3 domain, GenBank ID U03184; nucleotides 1468-1641) (mouse, UniProt Q60598 490-546, isotopically labeled (15N, 13C and/or 2H) for NMR).
T2 construct: domain: SH3 domain; also called purified cortactin-SH3
T2 sequence (Q60598 490-546 limits assumed): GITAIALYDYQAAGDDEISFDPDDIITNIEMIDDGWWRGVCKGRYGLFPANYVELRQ
Kind of experiment: NMR chemical shift titration (1H,15N-HSQC).

Experiment [5] concerns the target T2, cortactin-SH3 domain (mouse cortactin …). Kind of experiment: NMR chemical shift titration (1H,15N-HSQC), unlabeled peptide into 15N-SH3.

“Also recorded” adds a separate entry of the source. Where no end group is shown, it is not given here.

On to `CNC(=O)[C@H](Cc1c[nH]c2ccccc12)NC(=O)[C@@H](CC(=O)NO)CC(C)C` [GM6001, reference compound], for which the ECM invasion result with MDA-MB-231 cells [1] is “fully inhibited”.

The Kd is the equilibrium constant for the complex coming apart. In turn, `CC(=O)N[C@@H](C(=O)N[C@H](C)C(=O)N[C@H](Cc1ccccc1)C(=O)N[C@H](CCC(N)=O)C(=O)N[C@@H](CCC(=O)O)C(=O)N1CCC[C@H]1C(=O)N1CCC[C@H]1C(=O)N1CCC[C@H]1C(=O)N[C@@H](CCCCN)C(=O)N1CCC[C@H]1C(=O)N[C@@H](CO)C(=O)N[C@@H](CCCNC(=N)N)C(=O)N1CCC[C@H]1C(=O)N[C@@H](CCCCN)C(=O)N[C@@H](Cc1ccc(O)cc1)C(=O)N[C@H](CCCNC(=N)N)C(=O)N1CCC[C@@H]1C(=O)N1CCC[C@@H]1C(=O)N1CCC[C@@H]1C(N)=O)[C@H](C)O` [SEQ ID NO: 9, TAFQEPPPKPSRPKYRPPP] yielded a Kd at cortactin SH3 domain (capped Pyk2-PRR2 derivatives, NMR titration isotherm, unit inferred) of 15 ± 2 µM.

For “EFTGPPQKPPRLGAQS [Pyk2-PRR3, EFTGPPQKPPRLGAQS]”, the “2D motility (accumulated and Euclidean distances, velocity)” value with MDA-MB-231 cells [2] is “reduced 2D motility; also recorded: minor effect”. For the same molecule, the “invadopodia formation and maturation” value in the experiment with MDA-MB-231 cells [3] was “minor effect”.

“TAFQEPPPKPSR [Δ720-726 deletion mutant, Pyk2-PRR2 truncated to positions 708-719]”: the loss of affinity with cortactin SH3 domain stood at 27 fold.

On to “TAFQEPPPKPSRPKARPPP [Y722A, Pyk2-PRR2 708-726 with Y722A substitution]”, for which the loss of affinity in the experiment with cortactin SH3 domain was 3.5 fold.

B1: Pyk2-PRR2-Tf-tag, Ac-TAFQEPPPKPSRPKYRPPPHRPYIAH (SEQ ID NO: 8 + N-term cap) (peptide)
peptide: Ac-TAFQEPPPKPSRPKYRPPPHRPYIAH
notes: Pyk2-PRR2 (human Pyk2 708-726) followed by a C-terminal tag printed as HRPYIAH, the reverse of the Tf tag
Take B1: in experiment [4], the Kd is 2 µM.

B2: Tf-tag-Pyk2-PRR2, HAIYPRHTAFQEPPPKPSRPKYRPPP-NH2 (SEQ ID NO: 7 + C-term cap) (peptide)
peptide: HAIYPRHTAFQEPPPKPSRPKYRPPP-NH2
B2: the Kd in experiment [4] is 8 µM.

B3: Pyk2-PRR3 peptide (SEQ ID NO: 2) (peptide)
peptide: EFTGPPQKPPRLGAQS
notes: Unlabeled synthetic peptide as used in the NMR titration
For B3, the Kd in experiment [5] came to 650 µM.
